Laboratory results from patent US20160215035A1.
Read-outs that look alike come from different tables or passages of the source.

What was measured:
Assay in all cases: cell-based or functional assay
[1] = biological target: Type I IL-4R (UniProt P24394)
[2] = biological target: IL-4Rα (UniProt P24394)
[3] = biological target: IL-4Rα (UniProt P24394); remark: listed apart in the source

UniProt P24394, sequence (P24394 26-825 limits assumed): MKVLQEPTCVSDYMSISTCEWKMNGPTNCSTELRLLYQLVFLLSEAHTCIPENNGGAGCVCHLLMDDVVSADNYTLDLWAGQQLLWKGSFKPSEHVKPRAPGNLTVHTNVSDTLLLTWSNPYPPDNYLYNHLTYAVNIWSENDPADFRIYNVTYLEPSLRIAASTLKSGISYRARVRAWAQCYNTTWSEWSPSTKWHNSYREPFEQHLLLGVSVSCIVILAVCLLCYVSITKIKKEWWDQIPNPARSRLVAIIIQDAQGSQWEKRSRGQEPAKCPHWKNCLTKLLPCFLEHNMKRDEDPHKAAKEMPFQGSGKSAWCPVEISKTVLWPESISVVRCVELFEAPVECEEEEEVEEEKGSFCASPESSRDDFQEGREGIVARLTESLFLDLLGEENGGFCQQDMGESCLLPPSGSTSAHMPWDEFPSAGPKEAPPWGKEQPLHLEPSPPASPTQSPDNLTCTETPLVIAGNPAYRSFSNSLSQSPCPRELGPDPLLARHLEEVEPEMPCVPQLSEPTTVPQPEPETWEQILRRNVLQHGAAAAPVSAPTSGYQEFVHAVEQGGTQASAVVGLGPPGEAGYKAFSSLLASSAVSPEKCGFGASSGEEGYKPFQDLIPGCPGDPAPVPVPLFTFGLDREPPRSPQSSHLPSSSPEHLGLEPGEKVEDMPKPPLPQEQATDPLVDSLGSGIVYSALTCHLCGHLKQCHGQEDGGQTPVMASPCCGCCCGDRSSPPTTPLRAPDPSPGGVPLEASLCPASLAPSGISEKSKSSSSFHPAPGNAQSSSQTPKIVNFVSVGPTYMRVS

| IC50 (ng/mL), cell count by trypan blue exclusion, KCCL871 cells [3] [ng/mL] | IC50 (ng/mL), cell count by trypan blue exclusion, KCCOR891 cells [3] [ng/mL] | IC50 (ng/mL), cell count by trypan blue exclusion, KCCTCM901 cells [3] [ng/mL] | IC50 (ng/mL), cell count by trypan blue exclusion, YCUM862 cells [3] [ng/mL] | IC50 (ng/mL), cell count by trypan blue exclusion, YCUM911 cells [3] [ng/mL] | IC50 (ng/mL), cell count by trypan blue exclusion, YCUT891 cells [3] [ng/mL] | IC50, colony formation assay on U 251 cells (10 days) [3] [ng/mL] | Molecule | IC50, inhibition of [3H]-thymidine incorporation in HH cells (48 h) [1] [ng/mL] | IC50 (ng/mL), cell count by trypan blue exclusion, KCCL871 cells [2] [ng/mL] | IC50 (ng/mL), cell count by trypan blue exclusion, KCCOR891 cells [2] [ng/mL] | IC50 (ng/mL), cell count by trypan blue exclusion, KCCTCM901 cells [2] [ng/mL] | IC50 (ng/mL), cell count by trypan blue exclusion, YCUM862 cells [2] [ng/mL] | IC50 (ng/mL), cell count by trypan blue exclusion, YCUM911 cells [2] [ng/mL] | IC50 (ng/mL), cell count by trypan blue exclusion, YCUT891 cells [2] [ng/mL] | IC50, 5-day cell viability assay on Daudi cells, with 100x excess IL-4 [3] [ng/mL] | IC50, 5-day cell viability assay on Daudi cells, without excess IL-4 [3] [ng/mL] | IC50, 5-day cell viability assay on U 251 cells, with 100x excess IL-4 [3] [ng/mL] | IC50, 5-day cell viability assay on U 251 cells, without excess IL-4 [3] [ng/mL] | IC50, killing of Daudi cells (viable cell count, trypan blue exclusion, 5 days) [3] [ng/mL] | IC50, killing of U 251 cells (viable cell count, trypan blue exclusion, 5 days) [3] [ng/mL] |
| --- | --- | --- | --- | --- | --- | --- | --- | --- | --- | --- | --- | --- | --- | --- | --- | --- | --- | --- | --- | --- |
|  |  |  |  |  |  |  | cpIL4-PE (from UniProt P11439 278-633) | 362 | 1.5 | 9 | 0.7 | 0.6 | 4.5 | 8 |  |  |  |  |  |  |
| 0.5 | 0.15 | 1 | 1.1 | 0.2 | 11 | 5 | cpIL-4BAD fusion protein (protein) MDTTEKETFCRAATVLRQFYSHHEKDTRCLGATAQQFHRHKQLIRFLKRLDRNLWGLAGLNSCPVKEANQSTLENFLERLKTIMREKYSKCSSGGNGGHKCDITLQEIIKTLNSLTEQKTLCTELTVTDIFAASGSFQIPEFEPSEQEDSSSAERGLGPSPAGDGPSGSGKHHRQAPGLLWDASHQQEQPTSSSHHGGAGAVEIRSRHSAYPAGTEDDEGMGEEPSPFRGRSRAAPPNLWAAQRYGRELRRMSDEFVDSFKKGLPRPKSAGTATQMRQSSSWTRVFQSWWDRNLGRGSSAPSQ |  |  |  |  |  |  |  | > 1000 | 0.3 | > 1000 | 0.3 | 0.1 | 0.6 |
